According to paper PMC3372766:
Values belong to the substance of their own block, whether it stands above or below them.

Tests used:
[1] = target: T66C P388C E109C N331C ClpX^ΔN (E. coli) (UniProt P0A6H1); assay: cross-linking
[2] = target: +315N ClpX^ΔN (E. coli) (UniProt P0A6H1)
[3] = target: Δ315N ClpX^ΔN (E. coli) (UniProt P0A6H1)
[4] = target: T66C P388C ClpX^ΔN (E. coli) (UniProt P0A6H1); assay: cross-linking

- percent of the protein as circular hexamer after oxidation [1]: > 90%
- stoichiometry N [1]: 6
Substance: T66C P388C E109C N331C ClpX^ΔN (from UniProt P0A6H1 61-423) (enzyme)

- stoichiometry N [2]: 6
Substance: +315N ClpX^ΔN (from UniProt P0A6H1 61-423) (enzyme)

- stoichiometry N [3]: 6
Substance: Δ315N ClpX^ΔN (from UniProt P0A6H1 61-423) (enzyme)

- percent of the protein as disulfide-bonded circular hexamer after oxidation [4]: 75%
- stoichiometry N [4]: 6
Substance: T66C P388C ClpX^ΔN (from UniProt P0A6H1 61-423) (enzyme)
